The labels stand for the following.
B1: ustekinumab (antibody, V domains shown)
VH: EVQLVQSGAEVKKPGESLKISCKGSGYSFTTYWLGWVRQMPGKGLDWIGIMSPVDSDIRYSPSFQGQVTMSVDKSITTAYLQWNSLKASDTAMYYCARRRPGQGYFDFWGQGTLVTVSS
VL: DIQMTQSPSSLSASVGDRVTITCRASQGISSWLAWYQQKPEKAPKSLIYAASSLQSGVPSRFSGSGSGTDFTLTISSLQPEDFATYYCQQYNIYPYTFGQGTKLEIK
B2: H5L10 (antibody, human IgG1, kappa, V domains shown)
VH: EVQLVQSGAEVKKPGESLKISCQSSGYSFTTYWIGWVRQMPGQGLEWIGIMSPVDSDIRYNPMFRGQVTMSVDKSSSTAYLQWSSLKASDTAMYYCARRRPGQGYFDFWGQGTMVTVSS
VL: EIVLTQSPATLSASPGERATISCRASQSVGSWLAWYQQKPGQAPRSLIYAASNLQSGIPARFSGSGSGTDFTLTISSLEPEDFAVYYCQQYNIYPYTFGQGTRLEIKR
notes: human IgG1 / kappa constant regions; also called humanized antibody H5L10
B3: H5L9 (antibody, human IgG1, kappa, V domains shown)
VH: B2 VH
VL: DIQMTQSPSSLSASVGDRVTITCKASQNVGSWLAWYQQKPGKAPKSLIYSASSRQSGVPSRFSGSGSGTDFTLTISSLQPEDFATYYCQQYDIYPFTFGQGTKLEIKR
notes: human IgG1 (P01857) / kappa (P01834) constant regions; also called humanized antibody H5L9
B4: H5L14 (antibody, human IgG1, kappa, V domains shown)
VH: B2 VH
VL: B2 VL with G30S, Y96F
notes: human IgG1 / kappa constant regions; also called humanized antibody H5L14
B5: H5L12 (antibody, human IgG1, kappa, V domains shown)
VH: B2 VH
VL: B2 VL with G30S, L54R
notes: human IgG1 / kappa constant regions; also called humanized antibody H5L12
B6: H5L11 (antibody, human IgG1, kappa, V domains shown)
VH: B2 VH
VL: B2 VL with G30S, A50S
notes: human IgG1 / kappa constant regions; also called humanized antibody H5L11

Changes are numbered by the printed parent chain.

For the first assay, the target named is T1, human p40-His (human, UniProt P29460 23-328).
T1 construct: Made by Akeso Biopharma; construct limits and tag not described; also called human IL-12/IL-23 p40 protein domain; human IL-12/IL-23 p40; not shown: His tag
T1 sequence (looked up): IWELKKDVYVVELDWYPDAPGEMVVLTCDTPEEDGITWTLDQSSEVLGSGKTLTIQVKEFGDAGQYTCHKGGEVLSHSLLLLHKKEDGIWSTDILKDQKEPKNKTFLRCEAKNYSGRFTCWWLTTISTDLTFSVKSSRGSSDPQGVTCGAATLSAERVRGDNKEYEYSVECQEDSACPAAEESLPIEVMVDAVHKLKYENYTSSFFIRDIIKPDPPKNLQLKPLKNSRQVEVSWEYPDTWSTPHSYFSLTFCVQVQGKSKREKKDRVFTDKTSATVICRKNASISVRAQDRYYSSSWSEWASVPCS
Nature of the assay: BLI (Fortebio), p40-His on HIS1K sensor, antibody 5-0.31 nM, 37 °C, 1:1 fit. How it is done: The sample dilution buffer for H5L9, H5L10, H5L11, H5L12, H5L14, H8L15, Ab123FR1 and ustekinumab was PBS (0.02% Tween-20, 0.1% BSA, pH 7.4). p40-His was immobilized on a HIS1K (manufacturer: Fortebio, Cat. No.: 18-5120) sensor at a concentration of 1 μg/mL for 40 s. The sensor was equilibrated in a buffer for 60 s, and the p40-His immobilized on the sensor bound to the antibody at a concentration of 5-0.31 nM (two-fold dilution) for 120 s, and then the protein dissociated in the buffer for 300 s. The sensor was refreshed with 10 mM glycine solution (pH=1.5). The detection temperature was 37° C., the detection frequency was 0.3 Hz, and the sample plate shaking rate was 500 rpm. The data were analyzed by 1:1 model fitting to obtain affinity constants.
Background: BLI is a label-free optical method that tracks binding on a fibre tip over time.
As usually defined, the Kd is a measure of binding affinity in units of concentration. Broadly, the koff is the first-order rate constant of dissociation. Low values mean slow dissociation, high ones fast dissociation. As a reminder, the kon is the second-order rate constant of association. A lower kon goes with slower complex formation. For B1, the Kd was 0.0864 nM, the “S E (kon)” value was found to be 251000 M⁻¹ s⁻¹, the “S E(kdis)” value was 0.000181 s⁻¹ and the off-rate constant (koff) came to 0.000172 s⁻¹. The on-rate constant (kon) was determined as 1.99e+06 M⁻¹ s⁻¹.
The like results for B2 were, in that order, 0.121 nM, 364000 M⁻¹ s⁻¹, 0.000222 s⁻¹, 0.000435 s⁻¹ and 3.58e+06 M⁻¹ s⁻¹.
Take B3: binding was put at a Kd of 0.849 nM, the “S E (kon)” value came to 850000 M⁻¹ s⁻¹, the “S E(kdis)” value was 0.000307 s⁻¹ and the dissociation rate constant (koff) came out at 0.0092 s⁻¹. The kon came out at 1.08e+07 M⁻¹ s⁻¹.
Consider B4, for which the Kd is 0.062 nM, the “S E (kon)” value amounted to 236000 M⁻¹ s⁻¹, the “S E(kdis)” value was found to be 0.000158 s⁻¹ and the koff turned out to be 0.000182 s⁻¹. The kon amounted to 2.94e+06 M⁻¹ s⁻¹.
The like results for B5 were, in that order, 0.0905 nM, 212000 M⁻¹ s⁻¹, 0.000124 s⁻¹, 0.000348 s⁻¹ and 3.84e+06 M⁻¹ s⁻¹.
In the case of B6, the Kd was 0.136 nM, the “S E (kon)” value is 232000 M⁻¹ s⁻¹, the “S E(kdis)” value stood at 0.000144 s⁻¹ and the koff turned out to be 0.000428 s⁻¹. The molecule also had a kon of 3.15e+06 M⁻¹ s⁻¹.

The target of the next assay is T2, Human IL12 (His Tag) (human, UniProt P29459 23-219; P29460 23-328).
T2 construct: Bought His-tagged heterodimer
T2 sequence (looked up) 1: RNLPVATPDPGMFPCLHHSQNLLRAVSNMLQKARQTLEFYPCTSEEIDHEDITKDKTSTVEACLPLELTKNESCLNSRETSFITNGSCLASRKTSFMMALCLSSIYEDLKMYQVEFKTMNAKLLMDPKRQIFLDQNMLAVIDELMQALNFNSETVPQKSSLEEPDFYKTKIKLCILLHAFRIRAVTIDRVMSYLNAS
T2 sequence (looked up) 2: T1 sequence (looked up)
Kind of assay: FACS competition, IL-12-His 20 nM on 293T-IL-12Rβ1&IL-23R cells; antibody 0.12 µg/mL. On the procedure:
(§1) 200 μL of 1% PBSA was added into each sample, and the mixture was centrifuged at 700×g for 5 min to discard the supernatant. According to experiment design, correspondingly diluted antibody (highest final concentration of 30 μg/mL, 3-fold dilution, 8 concentrations in total) and human IL-12 (Sino Biological, Cat. No.: CT-050-H08H-20) (final concentration of 20 nM) were mixed at a ratio of 1:1, and a blank control was set. The mixture of antibody and human IL12 was incubated on ice for 30 min and then added to the cell precipitate at 100 μL/sample. The resulting mixture was well mixed and incubated on ice for 60 min 200 μL of 1% PBSA was added, and the mixture was centrifuged at 700×g for 5 min to discard the supernatant, and then washed twice. Alexa Fluor® 488 anti-His tag antibody (Biolegend, Cat. No.: 652509) was diluted at a ratio of 1:400 and added to each tube at 100 μL. The mixture was well mixed and incubated on ice for 40 min in the absence of light. 200 μL of 1% PBSA was added, and the mixture was centrifuged at 700×g for 5 min to discard the supernatant, and then washed twice. 1% PBSA was added at 200 μL/tube, and the cells were resuspended and transferred to a flow cytometry tube for testing.
For the molecule B1, the MFI is 137 MFI.
Still for that read-out and setting: under B2 stands 151 MFI; under B3, 160 MFI; under B4, 146 MFI.
Take B5: the MFI came to 133 MFI.
In the case of B6, the MFI is 145 MFI.

A further assay concerns the target T2, Human IL12 (His Tag). Nature of the assay: FACS competition, IL-12-His 20 nM on 293T-IL-12Rβ1&IL-23R cells; antibody 3.33 µg/mL. On the procedure: as §1
The molecule B1 yielded an MFI of 29.7 MFI.
Molecule B2 returned an MFI of 40.2 MFI.
Take B3: the MFI was 146 MFI.
Molecule B4 returned an MFI of 51.9 MFI.
In turn, B5 returned an MFI of 31.8 MFI.
As for B6, the MFI came out at 42.2 MFI.

In another assay the target is T3, human IL-23 (IL-23-His-Biotin) (human, UniProt Q9NPF7 20-189; P29460 23-328, biotin label, site not stated).
T3 construct: Akesobio lot 20161209; His-tagged and biotinylated
T3 sequence (looked up) 1: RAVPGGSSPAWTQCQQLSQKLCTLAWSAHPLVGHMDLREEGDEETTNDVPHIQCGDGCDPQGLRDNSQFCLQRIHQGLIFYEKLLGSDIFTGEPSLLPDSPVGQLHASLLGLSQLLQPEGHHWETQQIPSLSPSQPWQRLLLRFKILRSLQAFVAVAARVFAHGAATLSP
T3 sequence (looked up) 2: T1 sequence (looked up)
Kind of assay: FACS competition, IL-23-His-Biotin 2 µg/mL on 293T-IL-12Rβ1&IL-23R cells; antibody 30 µg/mL. How it is done: (§2) 200 μL of 1% PBSA was added into each sample, and the mixture was centrifuged at 700×g for 5 min to discard the supernatant. According to experiment design, correspondingly diluted antibody (highest final concentration of 30 μg/mL, 3-fold dilution, 8 concentrations in total) and human IL-23 (IL-23-His-Biotin, Akesobio, 20161209) (final concentration of 2 μg/mL) were mixed at a ratio of 1:1, and a blank control was set. The mixture of antibody and human IL23 was incubated on ice for 30 min and then added to the cell precipitate at 100 μL/sample. The resulting mixture was well mixed and incubated on ice for 60 min. 200 μL of 1% PBSA was added, and the mixture was centrifuged at 700×g for 5 min to discard the supernatant, and then washed twice. FITC Steptavidin (Biolegend, Cat. No.: 405202) was diluted at a ratio of 1:500 and added to each tube at 100 μL. The mixture was well mixed and incubated on ice for 40 min in the absence of light. 200 μL of 1% PBSA was added, and the mixture was centrifuged at 700×g for 5 min to discard the supernatant, and then washed twice. 1% PBSA was added at 200 μL/tube, and the cells were resuspended and transferred to a flow cytometry tube for testing.
In turn, B1 had an MFI of 9.64 MFI.
On the same count and under the same terms, under B2 stands 11.9 MFI.
The same measure, in the same setting: under B3 stands 104 MFI.
In the case of B4, the MFI came out at 14.1 MFI.
Same read-out and setting: under B5 stands 12.3 MFI.
In the case of B6, the MFI stood at 12.9 MFI.

The next assay deals with T3, human IL-23 (IL-23-His-Biotin). Kind of assay: FACS competition, IL-23-His-Biotin 2 µg/mL on 293T-IL-12Rβ1&IL-23R cells; antibody 0.04 µg/mL. How it is done: as §2
B1 showed an MFI of 216 MFI.
On to B2, for which the MFI worked out at 230 MFI.
The same measure, in the same setting: as for B3, the figure is 221 MFI; as for B4, 216 MFI.
As to B5, the MFI was 234 MFI.
Consider B6, for which the MFI was determined as 224 MFI.

A further assay shares this target. Nature of the assay: FACS competition, IL-23-His-Biotin 2 µg/mL on 293T-IL-12Rβ1&IL-23R cells; antibody 0.37 µg/mL. On the procedure:
as §2
In turn, B1 yielded an MFI of 186 MFI.
Same read-out and setting: under B2 stands 169 MFI.
The molecule B3 displayed an MFI of 206 MFI.
Still for that read-out and setting: as for B4, the figure is 179 MFI.
Still for that read-out and setting: as for B5, the figure is 177 MFI.
For B6, the MFI was determined as 179 MFI.

The record behind these values is patent US20220298235A1 (AKESO BIOPHARMA, published 2022).
